Test results from article PMC10716049.

Columns and labels:
MED1-IDR = test: confocal fluorescence microscopy, AR AD partitioning into preassembled droplets; details: 15 µM MED1-IDR, 20 mM NaCl, 10% ficoll, 1 µM AR AD; parent: est. 97; read off a plot
RNAPII-CTD = test: as above; details: 5 µM RNAPII-CTD, 50 mM NaCl, 10% ficoll, 1 µM AR AD; parent: est. 70; read off a plot

response (MED1-IDR): 80 arb.u.
response (RNAPII-CTD): 25 arb.u.
Substance: AR AD WT* 22YtoS
